{"source": "patent US20260207759A1", "about": "“COMPOSITION OF CD40-BINDING MOLECULE AND PHARMACEUTICAL USE THEREOF” (SUZHOU SUNCADIA BIOPHARMACEUTICALS CO., LTD., priority 2022, published 2026)", "key": {"[1]": {"target": "CD40 (Homo sapiens, UniProt P25942)", "sequence (P25942 21-193)": "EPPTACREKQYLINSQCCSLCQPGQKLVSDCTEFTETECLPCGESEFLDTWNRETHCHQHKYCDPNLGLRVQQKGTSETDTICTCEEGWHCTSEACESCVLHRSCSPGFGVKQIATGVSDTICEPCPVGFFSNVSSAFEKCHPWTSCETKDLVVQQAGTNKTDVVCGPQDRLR", "assay": "SPR (Biacore) affinity of anti-CD40 antibodies for human CD40", "assay_type": "binding", "parameters": "Glu21-Arg193; purchased Acrobiosystems Inc. CD0-H5228", "settings": "mobile phase Human CD40", "experimental": "The test antibody was affinity-captured on an anti-human Fc chip, and a series of concentrations of His-tagged human or cynomolgus monkey CD40 antigen were allowed to flow over the chip surface. Reaction signals were detected in real time using a Biacore instrument, and thus association and dissociation curves were obtained. The buffer used in the experiment was HBS-EP+10× buffer solution (Cat. #BR-1006-69, GE) diluted to 1×(pH 7.4) with D. I. Water. Fitting was performed on the data obtained from the experiment using a (1:1) Binding model to obtain affinity values."}, "[2]": {"target": "T1, Raji cell surface human CD40 (Homo sapiens, UniProt P25942)", "T1 construct": "Raji cells highly express human CD40 on the cell surface; endogenous in cells; host or cells: Raji cells", "T1 sequence (P25942 21-277)": "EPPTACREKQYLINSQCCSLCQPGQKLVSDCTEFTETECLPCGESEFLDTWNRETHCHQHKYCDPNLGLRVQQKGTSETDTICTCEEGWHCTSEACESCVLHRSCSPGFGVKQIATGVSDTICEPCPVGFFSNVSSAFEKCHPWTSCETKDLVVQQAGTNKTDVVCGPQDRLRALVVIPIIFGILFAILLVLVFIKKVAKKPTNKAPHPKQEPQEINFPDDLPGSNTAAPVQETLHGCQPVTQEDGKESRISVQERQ", "assay": "FACS binding of humanized anti-CD40 antibodies to Raji cells", "experimental": "Raji cells highly express human CD40 on the cell surface and thus can be used to detect the binding properties of CD40 antagonistic antibodies to the cell surface human CD40.\nRaji cells were plated at 1.5E5 cells/well, and various concentrations of CD40 antagonistic antibodies were added. The plate was incubated at 4° C. for 1 h. After two washes with FACS buffer (PBS+2% FBS), a secondary antibody (Alexa Flour488 conjugated anti-human IgG (H+L) antibody) was added, and the plate was incubated at 4° C. for 0.5 h. After two washes with FACS buffer, the fluorescence intensity on the cell surface was measured by flow cytometry (BD FACS Celesta)."}}, "data": [{"substance": "CFZ533: anti-CD40 antagonistic antibody CFZ533 (i.e., iscalimab), positive control, variable regions from U.S. Pat. No. 8,277,810B", "values": [{"measurement": "Ka", "setting": "[1]", "result": 688000, "unit": "M⁻¹ s⁻¹"}, {"measurement": "Kd", "setting": "[1]", "result": 205, "unit": "pM"}, {"measurement": "koff (dissociation rate constant, 1/s)", "setting": "[1]", "result": 0.000141, "unit": "s⁻¹"}, {"measurement": "EC50", "setting": "[2]", "result": 1010, "unit": "pM"}]}]}
